For 26 molecules, 2nd ADC Cell Killing IC50 results are on record in patent publication US20170253656A1.

Residue numbers refer to the chain shown, from its start.

The target in assay [1] is CD74 on CD74 positive SU-DHL-6 cells, P04233. Description: cell-based or functional assay.
The target in assay [2] is CD74 on CD74 positive SU-DHL-6 cells (UniProt P04233). Description: cell-based or functional assay.
CD74 on CD74 positive SU-DHL-6 cells, sequence (P04233 whole entry): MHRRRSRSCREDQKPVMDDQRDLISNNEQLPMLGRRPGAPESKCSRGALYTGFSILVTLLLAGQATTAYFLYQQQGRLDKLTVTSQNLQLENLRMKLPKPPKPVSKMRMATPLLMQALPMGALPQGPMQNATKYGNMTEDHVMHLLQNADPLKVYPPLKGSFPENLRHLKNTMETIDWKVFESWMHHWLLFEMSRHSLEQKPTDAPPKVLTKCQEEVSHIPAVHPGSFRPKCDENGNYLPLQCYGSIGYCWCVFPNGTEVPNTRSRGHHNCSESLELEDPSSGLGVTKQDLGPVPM

CD74 on CD74 positive SU-DHL-6 cells, P04233, sequence (P04233 whole entry): as above

B1: 1193-E06b (scFv)
scFv: EVQLLESGGGLVQPGGSLRLSCAASGFTFNNTDMSWVRQAPGKGLEWVGIINGSGGATNYADSVKGRFTISRDNSKNTLYLQMNSLRAEDTAVYYCAKFENEWEVSMDYWGQGTLVTVSSGGGGSGGGGSGGGGSEIVLTQSPGTLSLSPGERATLSCRASQSVSSSYLAWYQQKPGQAPRLLIYGASSRATGIPDRFSGSGSGTDFTLTISRLEPEDFAVYYCQQHYTTPPTFGQGTKVEIK
In turn, B1 gave a 2nd ADC Cell Killing IC50 in assay [1] of 8670 pM.

B2: 1193-H04b (scFv)
scFv: EVQLLESGGGLVQPGGSLRLSCAASGFTFTSSWMSWVRQAPGKGLEWVGIINGYNGITYYADSVKGRFTISRDNSKNTLYLQMNSLRAEDTAVYYCAKPSAPGARRFDYWGQGTLVTVSSGGGGSGGGGSGGGGSEIVLTQSPGTLSLSPGEATLSCRASQSVSSSYLAWYQQRPGQAPRLLIYGASSRATGIPDRFSGSGSGTDFTLTISRLEPEDFAVYYCQQHYTTPPTFGQGTKVEIK
In turn, B2 gave a 2nd ADC Cell Killing IC50 in assay [1] of 14800 pM.

B3: 1447-G01 scFv-Fc (Fc fusion, part only; not given: Fc portion, part only)
chain, part: EVQLLESGGGLVQPGGSLRLSCAASGFTFNTSDMSWVRQAPGKGLEWVGIINGSGGATNYADSVKGRFTISRDNSKNTLYLQMNSLRAEDTAVYYCAKYENEMEVSMDYWGQGTLVTVSSGGGGSGGGGSGGGGSEIVLTQSPGTLSLSPGERATLSCRASQSVSSRELGWYQQKPGQAPRLLIYGASSRATGIPDRFSGSGSGTDFTLTISRLEPEDFAVYYCQQQCSWPPTFGQGTKVEIK
In assay [2], B3 displayed a 2nd ADC Cell Killing IC50 of 650 pM.

B4: 1193-C08 (scFv)
scFv: EVQLLESGGGLVQPGGSLRLSCAASGFTFNNNWMSWVRQAPGKGLEWVGIINGDDGYTYYADRVKGRFTIIRDNSKNTLYLQMNSLRAEDTAVYYCAKVALGRPRRFDYWGQGTLVTVSSGGGGSGGGGSGGGGSEIVLTQSPGTLSLTPGERATLSCRASQSVSSNYLAWYQQKPGQAPRLLIYGASSRATGIPDRFSGSGSGTDFTLTISRLEPEDFAMYYCQQHYTTPPTFGQGTKVEIK
Regarding B4, the 2nd ADC Cell Killing IC50 in assay [1] came out at 8660 pM.

B5: 1447-E08 scFv-Fc (Fc fusion, part only; not given: Fc portion, part only)
chain, part: EVQLLESGGGLVQPGGSLRLSCAASGFTFNDTDMSWVRQAPGKGLEWVGMINGAGGASFYADSVRGRFTISRDNSKNTLYLQMNSLRAEDTAVYYCAKFENQWEVTFDYWGQGTLVTVSSGGGGSGGGGSGGGGSEIVLTQSPGTLSLSPGERATLSCRASQRVAGIDLSWYQQKPGQAPRLLIYGASSRATGIPDRFSGSGSGTDFTLTISRLEPEDFAVYYCQQHNTTPPTFGQGTKVEIK
Consider B5, for which the 2nd ADC Cell Killing IC50 in assay [2] was 2560 pM.

B6: 1251-A03 heavy chain paired with VL SEQ ID NO: 272 (antibody, V domains shown)
VH: QVQLVESGGGVVQPGRSLRLSCAASGFAFSDHGMHWVRQAPDKGLEWVAVIWYDGSHKIYADSVKGRFTISRDNSKNTLYLQMNSLRAEDTAVYYCARGGSLAGGAVYGTDVWGQGTTVTVSS
VL: DIQMTQSPSSLSASVGDRVTITCRASQGISSWLAWYQQKPEKAPKSLIYAASSLQSGVPSRFSGSGSGTDFTLTISSLQPEDFATYYCQQYNSYPLTFGGGTKVEIK
B6: the 2nd ADC Cell Killing IC50 in assay [1] stood at 10 pM.

B7: 1251-B08 heavy chain paired with VL SEQ ID NO: 272 (antibody, V domains shown)
VH: B6 VH with A28N, H32Y, H57I, K58S, I59Y, S101T, L102V, A103E, G104H, T117A
VL: B6 VL
In assay [1], B7 came in with a 2nd ADC Cell Killing IC50 of 7 pM.

B8: 1337-A09 light chain paired with VH 1251-A06 (SEQ ID NO: 236) (Fab, V domains shown)
VH: QVQLVESGGGVVQPGRSLRLSCAASGFDFSSYGMHWVRQAPDKGLEWVAVIWDDGSDRYYADSVKGRFTISRDNSKNTLYLQMNSLRAEDTAVYYCARGGTRVLGAIHGTDVWGQGTTVTVSS
VL: B6 VL with S30G, S52D, S53R, N92H, S93T
In turn, B8 returned a 2nd ADC Cell Killing IC50 in assay [1] of 4 pM.

B9: 1251-F07 heavy chain paired with VL SEQ ID NO: 272 (antibody, V domains shown)
VH: B8 VH with D28T, Y32H, D57N, R58E, Y59V, V103I, L104R, A106L, I107R, H108Y
VL: B6 VL
Take B9: in assay [1], the 2nd ADC Cell Killing IC50 turned out to be 9 pM.

B10: 1337-A08 light chain paired with VH 1251-A06 (SEQ ID NO: 236) (Fab, V domains shown)
VH: B8 VH
VL: B6 VL with G28D, S30G, L33V, A51S, S52D
With B10, the 2nd ADC Cell Killing IC50 in assay [1] turned out to be 7 pM.

B11: 1251-C03 heavy chain paired with VL SEQ ID NO: 272 (antibody, V domains shown)
VH: QVQLVESGGGVVQPGRSLRLSCAASGFNFSSYGMHWVRQAPDKGLEWVAVIWYDGSIKNYADSVKGRFTISRDNSKNTLYLQMNSLRAEDTAVYYCARGGALMRGEFSGHDVWGQGTTVTVSS
VL: B6 VL
In turn, B11 yielded a 2nd ADC Cell Killing IC50 in assay [1] of 50 pM.

B12: 1337-A05 light chain paired with VH 1251-A06 (SEQ ID NO: 236) (Fab, V domains shown)
VH: B8 VH
VL: B6 VL with S30G, S31R, L33V, A50G, S52D, S53R
In turn, B12 returned a 2nd ADC Cell Killing IC50 in assay [1] of 4 pM.

B13: 1251-D06 heavy chain paired with VL SEQ ID NO: 272 (antibody, V domains shown)
VH: QVQLVESGGGVVQPGRSLRLSCAASGFSFGSYGMHWVRQAPDKGLEWVAVVWYDGSKTIYADSVKGRFTISRDNSKNTLYLQMNSLRAEDTAVYYCARGGTLVRGAVYGLDVWGQGTTVTVSS
VL: B6 VL
In the case of B13, the 2nd ADC Cell Killing IC50 in assay [1] is 4 pM.

B14: 1251-A02 heavy chain paired with VL SEQ ID NO: 272 (antibody, V domains shown)
VH: B6 VH
VL: B6 VL
In assay [1], B14 gave a 2nd ADC Cell Killing IC50 of 9 pM.

B15: 1337-A10 light chain paired with VH 1251-A06 (SEQ ID NO: 236) (Fab, V domains shown)
VH: B8 VH
VL: B6 VL with L33V, A50G, A51S, S53R, S93T
In the case of B15, in assay [1], the 2nd ADC Cell Killing IC50 came to 6 pM.

B16: 1337-A07 light chain paired with VH 1251-A06 (SEQ ID NO: 236) (Fab, V domains shown)
VH: B8 VH
VL: B6 VL with L33V, A50G, S53R, N92H, S93T
B16: in assay [1], the 2nd ADC Cell Killing IC50 was 4 pM.

B17: 1251-G02 heavy chain paired with VL SEQ ID NO: 272 (antibody, V domains shown)
VH: B8 VH with D28T, D53H, D57K, R58D, T101Q, R102L, V103D, L104H, H108Y, T110L
VL: B6 VL
B17: the 2nd ADC Cell Killing IC50 in assay [1] stood at 13 pM.

B18: 1337-A04 light chain paired with VH 1251-A06 (SEQ ID NO: 236) (Fab, V domains shown)
VH: B8 VH
VL: B6 VL with G28D, S30G, S31R, L33V, A50G, S93T
For B18, the 2nd ADC Cell Killing IC50 in assay [1] was 4 pM.

B19: 1337-A06 light chain paired with VH 1251-A06 (SEQ ID NO: 236) (Fab, V domains shown)
VH: B8 VH
VL: B6 VL with G28D, S30G, L33V, A50G, S52D, S53R
B19 registered a 2nd ADC Cell Killing IC50 in assay [1] of 4 pM.

B20: 1251-B09 heavy chain paired with VL SEQ ID NO: 272 (antibody, V domains shown)
VH: B13 VH with S28N, G30S, S31D, V51T, K57R, T58E, I59Y, R104H, V107L, L110N
VL: B6 VL
B20: the 2nd ADC Cell Killing IC50 in assay [1] is 7 pM.

B21: 1251-D02 heavy chain paired with VL SEQ ID NO: 272 (antibody, V domains shown)
VH: B8 VH with D28S, S30A, Y32H
VL: B6 VL
Regarding B21, the 2nd ADC Cell Killing IC50 in assay [1] came to 14 pM.

B22: 1251-E06 heavy chain paired with VL SEQ ID NO: 272 (antibody, V domains shown)
VH: QVQLVESGGGVVQPGRSLRLSCAASGFTFDSYGMHWVRQAPDKGLEWVAVIWYDGSNKVYADSVKGRFTISRDNSKNTLYLQMNSLRAEDTAVYYCARGGMVGQGAMFGLDVWGQGTTVTVSS
VL: B6 VL
Turning to B22, the 2nd ADC Cell Killing IC50 in assay [1] came to 15 pM.

B23: 1251-F06 heavy chain paired with VL SEQ ID NO: 272 (antibody, V domains shown)
VH: QVQLVESGGGVVQPGRSLRLSCAASGFTFSSFGMHWVRQAPDKGLEWVAVIWYDGSNEYYADSVKGRFTISRDNSKNTLYLQMNSLRAEDTAVYYCARGGSLVTRGVYGLDVWGQGTTVTVSS
VL: B6 VL
With B23, in assay [1], the 2nd ADC Cell Killing IC50 is 17 pM.

B24: 1251-A06 heavy chain paired with VL SEQ ID NO: 272 (antibody, V domains shown)
VH: B8 VH
VL: B6 VL
As to B24, the 2nd ADC Cell Killing IC50 in assay [1] turned out to be 0.2 pM.

B25: 1251-D09 heavy chain paired with VL SEQ ID NO: 272 (antibody, V domains shown)
VH: B8 VH with D28S, D53Y, G55A, D57I, Y59K, D62G, R102V, V103E, L104R, H108Y
VL: B6 VL
B25: in assay [1], the 2nd ADC Cell Killing IC50 is 7 pM.

B26: 1193-B06 (scFv)
scFv: EVQLLESGGGLVQPGGSLRLSCAASGFTFTGNWMSWVRQAPGKGLEWVGIIYGTSGATYYADSVKGRFTISRDNSKNTLYLQMNSLRAEDTAVYYCAKPSMSGSRGFDYWGQGTLVTVSSGGGGSGGGGSGGGGSEIVLTQSPGTLSLSPGERATLSCRAGQSVSSSYLAWYQQKPGQAPRLLIYGASSRATGIPDRFSGSGSGTDFTLTISRLEPEDFAVYYCQQHYTTPPTFGQGTKVEIK
As for B26, the 2nd ADC Cell Killing IC50 in assay [1] is 10300 pM.
